Experimental data published in US10005846B2, “Anti-transglutaminase 2 antibodies” (MEDICAL RESEARCH COUNCIL TECHNOLOGY, priority 2012, dated 2018).

T1: human TG2 (Homo sapiens, UniProt P21980)
T1 sequence (P21980 1-687): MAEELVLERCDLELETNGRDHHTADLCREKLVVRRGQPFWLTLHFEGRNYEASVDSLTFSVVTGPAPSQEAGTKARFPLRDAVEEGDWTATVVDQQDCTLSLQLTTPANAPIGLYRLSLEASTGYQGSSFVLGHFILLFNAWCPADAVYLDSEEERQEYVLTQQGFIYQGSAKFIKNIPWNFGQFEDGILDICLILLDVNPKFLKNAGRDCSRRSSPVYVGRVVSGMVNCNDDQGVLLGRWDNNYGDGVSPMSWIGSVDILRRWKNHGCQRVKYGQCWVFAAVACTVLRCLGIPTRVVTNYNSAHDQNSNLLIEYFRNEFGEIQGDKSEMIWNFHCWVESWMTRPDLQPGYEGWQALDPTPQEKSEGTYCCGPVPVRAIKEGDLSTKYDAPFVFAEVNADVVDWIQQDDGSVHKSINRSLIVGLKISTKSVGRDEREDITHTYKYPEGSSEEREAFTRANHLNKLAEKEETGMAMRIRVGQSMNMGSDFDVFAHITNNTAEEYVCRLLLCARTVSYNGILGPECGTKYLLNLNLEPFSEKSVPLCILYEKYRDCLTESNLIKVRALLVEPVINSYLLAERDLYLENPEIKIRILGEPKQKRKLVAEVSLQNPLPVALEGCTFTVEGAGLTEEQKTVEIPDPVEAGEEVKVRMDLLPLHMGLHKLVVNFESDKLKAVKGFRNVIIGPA

T2: TG2 activity in HepG2 cell homogenate (Homo sapiens, UniProt P21980)
T2 construct: endogenous in cells; host or cells: HepG2
T2 sequence (P21980 1-687): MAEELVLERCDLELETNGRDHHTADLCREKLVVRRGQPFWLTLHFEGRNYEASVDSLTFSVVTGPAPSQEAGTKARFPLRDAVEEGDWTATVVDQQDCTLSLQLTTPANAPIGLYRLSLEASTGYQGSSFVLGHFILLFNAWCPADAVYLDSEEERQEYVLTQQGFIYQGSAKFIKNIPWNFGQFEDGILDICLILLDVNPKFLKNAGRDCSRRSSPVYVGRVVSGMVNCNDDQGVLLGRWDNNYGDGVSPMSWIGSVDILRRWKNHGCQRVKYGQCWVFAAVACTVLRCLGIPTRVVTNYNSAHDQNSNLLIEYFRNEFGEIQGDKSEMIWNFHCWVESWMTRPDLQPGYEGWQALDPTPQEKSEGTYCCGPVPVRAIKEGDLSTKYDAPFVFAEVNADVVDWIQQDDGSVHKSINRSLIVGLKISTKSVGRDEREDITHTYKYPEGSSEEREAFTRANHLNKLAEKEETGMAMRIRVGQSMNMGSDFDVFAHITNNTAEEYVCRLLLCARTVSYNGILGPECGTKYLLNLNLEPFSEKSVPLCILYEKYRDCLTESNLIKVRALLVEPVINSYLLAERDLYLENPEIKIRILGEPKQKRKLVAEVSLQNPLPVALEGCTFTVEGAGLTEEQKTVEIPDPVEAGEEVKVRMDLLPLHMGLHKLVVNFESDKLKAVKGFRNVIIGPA

T3: extracellular TG2 in human HK-2 cells (Homo sapiens, UniProt P21980)
T3 construct: endogenous in cells; host or cells: HK-2 (kidney proximal tubular epithelium)
T3 sequence (P21980 1-687): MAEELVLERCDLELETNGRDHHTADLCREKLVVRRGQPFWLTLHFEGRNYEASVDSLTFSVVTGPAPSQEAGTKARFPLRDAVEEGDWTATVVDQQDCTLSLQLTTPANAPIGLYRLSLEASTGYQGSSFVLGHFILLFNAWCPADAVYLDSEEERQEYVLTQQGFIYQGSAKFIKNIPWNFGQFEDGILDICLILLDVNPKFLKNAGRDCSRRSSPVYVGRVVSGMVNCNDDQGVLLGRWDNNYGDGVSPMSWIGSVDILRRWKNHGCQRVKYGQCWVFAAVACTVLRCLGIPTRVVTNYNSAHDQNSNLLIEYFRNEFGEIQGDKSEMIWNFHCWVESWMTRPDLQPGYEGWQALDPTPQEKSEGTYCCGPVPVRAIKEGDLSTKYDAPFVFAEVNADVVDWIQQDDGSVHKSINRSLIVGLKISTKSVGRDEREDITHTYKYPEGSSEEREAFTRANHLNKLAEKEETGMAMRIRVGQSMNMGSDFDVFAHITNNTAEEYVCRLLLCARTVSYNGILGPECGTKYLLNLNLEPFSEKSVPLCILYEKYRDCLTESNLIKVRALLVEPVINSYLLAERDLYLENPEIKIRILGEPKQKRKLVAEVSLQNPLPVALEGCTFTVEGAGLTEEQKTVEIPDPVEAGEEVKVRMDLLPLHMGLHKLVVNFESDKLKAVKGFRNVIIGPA

B1: DC1: murine monoclonal anti-TG2 IgG, Group 1; VL SEQ ID NO: 70, VH SEQ ID NO: 71 (antibody, V domains shown)
VH: EVQLVESGGGLVKPGGSLKLSCAASGFTLSTHAMSWVRQTPEKRLEWVATISSGGRSTYYPDSVKGRFTISRDNVKNTLYLQLSSLRSEDTAVYFCARLISTYWGQGTTLTVSS
VL: DITMTQSPSSIYASLGERVTITCKASQDINSYLTWFQQKPGKSPKILIYLVNRLVDGVPSRFSGSGSGQDYALTISSLEYEDMGIYYCLQYDDFPYTFGGGTKLEIK
modifications: DC-1 heavy chain variable region; DC-1 light chain variable region
B2: BB7: murine monoclonal anti-TG2 IgG, Group 1; VL SEQ ID NO: 60, VH SEQ ID NO: 61 (antibody, V domains shown)
VH: AVQLVESGGGLVKPGGSLKLSCAASGIIFSSSAMSWVRQTPEKRLEWVATISSGGRSTYYPDSVKGRFTVSRDSAKNTLYLQMDSLRSEDTAIYYCAKLISPYWGQGTTLTVSS
VL: AIKMTQSPSSMYASLGERVIITCKASQDINSYLTWFQQKPGKSPKTLIYLTNRLMDGVPSRFSGSGSGQEFLLTISGLEHEDMGIYYCLQYVDFPYTFGGGTKLEIK
modifications: BB-7 heavy chain variable region; BB-7 light chain variable region
B3: EH6: murine monoclonal anti-TG2 IgG, Group 1; VH and VK in FIG. 22 (antibody, V domains shown)
VH: EVQLQQSGPELVKPGASVKMSCKASGYTFTSYVMHWVKQKPGQGLEWIGFINPYNDGTKYNEKFKGKATLTSDKASTTAYMELSSLTSEDSAVYYCARFSSGYWGQGTTLTVSS
VL: DVLMTQTPLSLPVSLGDQASISCRSSQSIVHSNGNTYLEWYLQKPGQSPKLLIYKVSNRFSGVPDRFSGSGSGTDFTLKISRVGAEDLGVYYCLQVSHVPFTFGSGTKLEIK
B4: JE12: murine monoclonal anti-TG2 IgG, Group 1; VH and VK in FIG. 21 (antibody, V domains shown)
VH: EVQLQQSGPELVKPGASVKMSCKASGYRFTSYVMHWVKQKSGQGLEWIGYINPYNDGAKYNEKFKGKATLTSDKSSSTAYMELSSLTSEDSAVYYCARLSSDYWGQGTTLTVSS
VL: DVLMTQNPLSLPVSLGDQASISCRSSQSIEHINGNTYLEWYLQKPGQSPKFLIYKVSNRFSGVPDRFSGSGSGTDFTLRISRVEAEDLGIYYCFQGSHVPFTFGGGTKLEIK
B5: AG9: murine TG2 inhibitory monoclonal antibody; VH and VK in FIG. 23 (antibody, V domains shown)
VH: EVQLQQSGPELVKPGASVKMSCRASGYTFTTYVIHWVKQKPGQGLEWIGYINPYNDGARYNEKFKGKATLTSDKSSTTAYMELSSLTSEDSAVYYCARLSSDYWGQGTTLTVSS
VL: DVLMTQNPLSLPVSLGDQASISCRSSRSIEHSNGNTYLEWYLQKPGQSPKFLIYKVSNRFSGVPDRFSGSGSGTDFTLRISSVEAEDLGVYYCFQGSHVPFTFGGGTKLEIK
B6: AH3: murine TG2 inhibitory monoclonal antibody; VH and VK in FIG. 24 (antibody, V domains shown)
VH: EVQLQQSGPELVKPGASVKMSCRASGYTFTTYVIHWVKQKPGQGLEWIGYINPYNDGARYNEKFKGKATLTSDKSSTTAYMELSSLTSEDSAVYYCARLSSDYWGQGTTLTVSS
VL: DVLMTQNPLSLPVSLGDQASISCRSSRSIEHSNGNTYLEWYLQKPGQSPKFLIYKVSNRFSGVPDRFSGSGSGTDFTLRISSVEAEDLGVYYCFQGSHVPFTFGGGTKLEIK

Legend:
[1] = biological target: T1, human TG2; test: 3H-putrescine incorporation TG activity assay with recombinant human TG2; assay type: biochemical; settings: for hybridoma supernatant ability to inhibit TG2 activity: initial screen of conditioned medium, 100 ng of TG2
Experimental: To determine an IC50 value for each antibody against human, rat and mouse the ^3H Putrescine assay was used. 100 ng of human TG2 or 25 ng of mouse and rat TG2 was used to generate a reaction where approximately 3000 cpm of Putrescine were incorporated per hour in 10 ul of the reaction mixture. Serial dilutions of each antibody were then applied starting from adding 500 ng (5 ug/ml final concentration) to the reaction mixture and incubated with the TG2 for 20 minutes prior to activating the reaction. IC50 values were calculated by determining the concentration at which the enzymatic rate of reaction was reduced by 50% using an appropriate curve fit in graphpad prism. Values are expressed as the amount of IgG in […] in the reaction that would inhibit 1 ng of TG2.
TG activity is measured by the Ca^2+ dependent incorporation of ^3H-putrescine into N′,N′-dimethylcasein. Recombinant human TG2 (100 ng) was pre-incubated for twenty minutes at room temperature with the test sample (conditioned medium or purified IgG) before starting the reaction. Twenty-five μl of reaction mix (5 μl of 25 mM CaCl2, 5 μl of 40 mM dithiothreitol, 5 μl ^3H-putrescine mix, and 10 μl 25 mg/ml of N,N′ dimethylcasein (replace 25 mM CaCl2 with 100 mM EDTA for a non-enzymatic control) was added to start the reaction and the samples incubated at 37° C. for up to 1 hour. Aliquots of 10 μl were spotted onto a strip of 3 MM Whatman filter paper and plunged immediately into ice-cold 10% trichloroacetic acid (TCA) in order to precipitate the cross-linked proteins typically at time 0, 10, 30 and 60 minutes into the reaction. After three extensive washes in ice-cold 5% TCA followed by 3 rinses with ice-cold 95% ethanol, the air dried filter was counted in 2 ml of scintillation fluid (Ultima Gold Packard, Perkin Elmer). The rate of reaction was calculated. 1 TG unit is equivalent to the incorporation of 1 nmol of putrescine per hour at 37° C.

[2] = biological target: T2, TG2 activity in HepG2 cell homogenate; test: 3H putrescine incorporation TG activity assay in HepG2 cell homogenate; assay type: biochemical
Experimental: A: Hep2G cells were lysed and 45 ug of protein mixed with 750 ng of IgG from AB1, DH2, DD9, BB7, DC1 and EH6 for 20 minutes. This was subsequently assayed using the ^3H Putrescine incorporation TG activity assay with sampling over 1 hour. The rate of reaction was calculated and expressed as a percentage of the same lysate incubated with a random antibody (MAB002). Data represents the mean percentage inhibition ±SEM from 2 separate experiments done in duplicate. *p<0.05
HepG2 cells were kindly supplied by Richard Ross (University of Sheffield). Cells were routinely grown at 37° C. in a 95% humidified atmosphere of 5% CO2 in DMEM/4.5 g per liter glucose supplemented with 10% foetal calf serum (FCS), 100 IU penicillin and 100 μg/ml streptomycin, 2 mM I-glutamine (all GIBCO). Two million cells were seeded on a 10 cm dishes and grown for 48 hours. Cells were lysed in 250 μl of STE buffer (0.32M sucrose, 5 mM Tris, 1 mM EDTA containing protease inhibitors Phenylmethylsulphonyl fluoride (1 mM), benzamidine (5 mM), and leupeptin (10 μg/ml) and sonicated on ice to produce a cell lysate usable in TG2 activity assay.
The same protocol was used to assess TG inhibition in cell lysates by replacing the 25 μl of recombinant protein with 25 μl of cell lysate.

[3] = biological target: T3, extracellular TG2 in human HK-2 cells; test: Extracellular TG activity in HK-2 cells, biotin cadaverine incorporation into fibronectin (Example 1); assay type: cell-based
Experimental: HK2 cells were plated onto fibronectin and incubated for 2 hours in the presence of 0.1M biotin cadaverine with either 4 ng/μl of human anti-TG2 antibody (AB1) (part A), 4 ng/μl of human anti-TG2 antibody (DC1) (part B) or 400 μM of the site-specific pan TG inhibitor 1,3-Dimethyl-2-[(2-oxo-propyl)thio]imidazolium chloride. […] Changes in optical density were measured at 450 nm in a 96 well plate reader. Data represents mean OD at 450 nm corrected to 1 mg of cell protein. n=6 wells per experimental group.
Extracellular TG activity was measured by modified cell ELISA. HK-2 epithelial cells were harvested using 0.1M EDTA or 0.25% trypsin/EDTA and plated at a density of 8×10^4 cells/well in serum free medium onto a 96 well plate that had been coated overnight with 100 μl/well of fibronectin (5 μg/ml in 50 mM Tris-HCl pH 7.4) (Sigma, Poole UK). Cells were allowed to attach for 2.5 h at 37° C. in the presence of the 0.1 mM biotin cadaverine [N-(5 amino pentyl biotinamide) trifluoroacetic acid] (Molecular Probes, Eugene Oreg., USA). Plates were washed twice with 3 mM EDTA/PBS and cells removed with 0.1% (w/v) deoxycholate in 5 mM EDTA/PBS. The supernatant was collected and used for protein determination. […] The reaction was stopped with 50 μl 2.5 M H2SO4 and the absorbance read at 450 nm.

| Molecule | hybridoma supernatant ability to inhibit TG2 activity [1] | also measured |
| --- | --- | --- |
| B1 | able to inhibit TG2 activity | IC50 against human TG2 ([1]; amount of IgG in the reaction that would inhibit 1 ng of TG2, 100 ng human TG2): 0.011 µg/mL; inhibition of TG2 in human Hep2G cells (in words) [2]: able to inhibit TG2 successfully; inhibition of extracellular TG activity ([3]; 4 ng/ul in the culture media): 55%; inhibition of extracellular TG2 in human HK-2 cells (in words) ([3]; applied to the culture media): able to inhibit TG2 successfully |
| B2 | able to inhibit TG2 activity | inhibition of TG2 activity in HepG2 homogenate ([2]; 0.5 μg of antibody, 45 ug lysate protein): 90% |
| B3 | able to inhibit TG2 activity | – |
| B4 | able to inhibit TG2 activity | – |
| B5 | able to inhibit TG2 activity | – |
| B6 | able to inhibit TG2 activity | – |
